From patent US20220017620A1 (SHANGHAI FUDAN ZHANGJIANG BIO PHARMACEUTICAL, published 2022) come the findings set out here.

For orientation: EC50 (read off the curve) means the concentration at which the effect is half-maximal. Read a high EC50 (read off the curve) as weaker potency. In general, Kd refers to the constant that tells how readily two partners part at equilibrium. Low readings indicate higher affinity, high ones lower affinity. As usually defined, the koff is a measure of how fast the partners let go of each other. Broadly, the kon is a measure of how fast the partners come together. Low values mean slow association, high ones fast association.

The target in one assay is T1, antigen B7-H3 (R&D).
T1 construct: construct not described; also called B7-H3 protein; coated B7-H3 protein
T1 sequence (Q5ZPR3 whole entry, species assumed, looked up): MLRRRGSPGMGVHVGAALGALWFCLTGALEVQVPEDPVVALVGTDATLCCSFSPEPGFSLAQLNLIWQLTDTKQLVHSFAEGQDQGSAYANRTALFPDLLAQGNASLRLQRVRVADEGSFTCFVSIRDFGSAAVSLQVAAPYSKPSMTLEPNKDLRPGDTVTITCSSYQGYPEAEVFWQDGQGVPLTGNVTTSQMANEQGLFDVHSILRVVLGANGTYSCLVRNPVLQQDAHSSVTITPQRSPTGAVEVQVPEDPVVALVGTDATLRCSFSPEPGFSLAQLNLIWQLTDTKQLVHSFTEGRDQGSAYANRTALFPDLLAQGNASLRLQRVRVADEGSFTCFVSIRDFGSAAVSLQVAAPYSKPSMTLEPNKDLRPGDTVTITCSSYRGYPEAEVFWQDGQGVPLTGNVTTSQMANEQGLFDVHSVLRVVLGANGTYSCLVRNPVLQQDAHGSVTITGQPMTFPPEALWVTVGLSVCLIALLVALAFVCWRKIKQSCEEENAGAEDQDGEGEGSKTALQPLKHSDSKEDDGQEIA
As to the kind of experiment: ELISA on coated B7-H3. The protocol: (§1) Protein binding: 100 μL of antigen B7-H3 (R&D) at 20 ng/ml was coated onto microplate, incubated at 2-8° C. overnight. Subsequently, 100 μL of the prepared full-length IgG1 antibody described above was added with a total of 8 concentrations started from 2000 ng/ml and serially diluted with 3-fold, incubating at 37° C., 600 rpm for 1 hour. After the plate was washed for three times, Goat anti human IgG (Fc)-HRP enzyme-linked antibody was added and the plate was shook at 37° C. and 600 rpm for 1 hour. After the plate was washed for 4 times, TMB chromogenic solution was aliquoted in and incubated for 10 minutes, then 1 mol/L […] stop solution at 100 μL/well was aliquoted to stop the reaction and the absorbance was measured.

Assay [1] deals with T2, IgV domain of B7-H3 (human, UniProt Q5ZPR3 30-130).
T2 sequence: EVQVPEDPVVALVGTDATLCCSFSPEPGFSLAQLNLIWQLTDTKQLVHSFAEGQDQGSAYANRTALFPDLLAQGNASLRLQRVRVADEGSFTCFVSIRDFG
As to the kind of experiment: ELISA on coated antigen, IgG1 antibody. The protocol:
as §1
Background: ELISA stands for enzyme-linked immunosorbent assay.

Assay [2] concerns the target T3, 4Ig B7-H3 (soluble human B7-H3 protein with 435 amino acids) (human, UniProt Q5ZPR3 27-461, limits assumed).
T3 construct: also called 4Ig-B7H3 antigen; B7H3/4Ig
T3 sequence: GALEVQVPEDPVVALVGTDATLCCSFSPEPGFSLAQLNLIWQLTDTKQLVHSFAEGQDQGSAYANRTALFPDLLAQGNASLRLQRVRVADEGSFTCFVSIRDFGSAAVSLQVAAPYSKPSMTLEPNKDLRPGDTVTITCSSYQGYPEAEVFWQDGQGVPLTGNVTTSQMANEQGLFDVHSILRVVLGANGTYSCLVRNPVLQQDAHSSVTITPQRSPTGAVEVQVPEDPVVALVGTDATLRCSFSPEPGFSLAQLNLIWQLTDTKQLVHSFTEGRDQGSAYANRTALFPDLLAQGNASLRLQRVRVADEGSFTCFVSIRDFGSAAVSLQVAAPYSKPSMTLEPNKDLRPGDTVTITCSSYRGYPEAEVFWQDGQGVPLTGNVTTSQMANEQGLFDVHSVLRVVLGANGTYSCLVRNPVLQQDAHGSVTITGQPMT
In words: ELISA on coated antigen, IgG1 antibody. How it is done:
as §1

Assay [3] concerns the target T4, 2Ig B7-H3 (soluble human B7-H3 with 217 amino acids) (human, UniProt Q5ZPR3 29-463).
T4 construct: also called 2IgB7-H3 domain
T4 sequence: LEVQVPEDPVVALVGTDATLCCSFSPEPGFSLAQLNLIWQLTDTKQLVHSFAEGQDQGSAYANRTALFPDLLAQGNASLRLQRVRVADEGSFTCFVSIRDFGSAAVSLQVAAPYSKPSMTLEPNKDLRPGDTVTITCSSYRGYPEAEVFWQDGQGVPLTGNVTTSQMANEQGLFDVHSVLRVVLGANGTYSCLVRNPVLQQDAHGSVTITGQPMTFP
As to the kind of experiment: ELISA on coated antigen, IgG1 antibody. How it is done:
as §1

A further assay addresses T5, IgC domain of B7-H3 (human, UniProt Q5ZPR3 141-242).
T5 sequence: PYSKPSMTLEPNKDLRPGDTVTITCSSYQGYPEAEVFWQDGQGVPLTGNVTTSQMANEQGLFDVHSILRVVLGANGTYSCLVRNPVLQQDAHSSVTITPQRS
As to the kind of experiment: ELISA on coated antigen, IgG1 antibody. How it is done:
as §1

For assay [4], the target named is T3, 4Ig B7-H3 (soluble human B7-H3 protein …). In words: SPR, BIAcore T200, antibody amine-coupled to the chip, antigen as analyte, 1:1 Langmuir fit. How it is done:
SPR detection was performed with BIAcore T200 (GE) system. Series Sensor Chip CMS and the amine coupling kit for immobilization were purchased from GE.
The B7-H3 antigen was diluted with HBS-EP buffer in a certain proportion to concentration gradients of 0 nM, 0.15625 nM, 0.3125 nM, 0.625 nM, 1.25 nM (two replicates), 2.5 nM, 5 nM, 10 nM, 20 nM, the flow rate was set to 30 μL/min, the binding time was set to 120 s, and the dissociation time was set to 1800 s for sample analysis. For regeneration, Gly-HCl buffer (pH 1.5) could be used as a regeneration buffer, the flow rate was set to 30 μL/min, and regeneration was performed for 30 s. The experiment adopted multi-cycle operation, for the response signal, the analysis time was set as the abscissa and the response value was set as the ordinate. The obtained data was fitted by BIAcore T200 analysis software. The fitting model used was 1:1 Langmuir binding model, and the kinetic constants such as the binding rate constant, the dissociation rate constant, and the binding and dissociation constant were determined.
For orientation: In SPR one partner is held on a chip, and binding of the other changes the refractive index at the surface.

Assay [5] addresses T6, B7-H3 on B7-H3 transfected CHO cells.
T6 construct: whole, on cells; also called CHO cells transfected with B7-H3
T6 sequence (Q5ZPR3 1-534, species assumed, looked up): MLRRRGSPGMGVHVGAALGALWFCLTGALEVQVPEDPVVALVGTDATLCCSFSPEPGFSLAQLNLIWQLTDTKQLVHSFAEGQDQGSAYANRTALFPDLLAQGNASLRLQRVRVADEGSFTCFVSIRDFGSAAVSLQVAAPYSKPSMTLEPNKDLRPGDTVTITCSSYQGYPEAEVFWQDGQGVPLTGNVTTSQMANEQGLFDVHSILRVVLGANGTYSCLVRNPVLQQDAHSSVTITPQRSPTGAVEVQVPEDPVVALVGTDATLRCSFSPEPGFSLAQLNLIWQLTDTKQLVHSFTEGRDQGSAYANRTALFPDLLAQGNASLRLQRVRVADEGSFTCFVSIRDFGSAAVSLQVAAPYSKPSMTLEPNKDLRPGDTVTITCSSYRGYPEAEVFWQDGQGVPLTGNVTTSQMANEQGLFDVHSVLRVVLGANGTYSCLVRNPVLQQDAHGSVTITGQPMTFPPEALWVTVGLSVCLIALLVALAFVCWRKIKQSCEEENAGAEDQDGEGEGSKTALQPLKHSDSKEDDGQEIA
In words: cell-based ELISA on B7-H3 transfected CHO-K1 cells.

For assay [6], the target named is T2, IgV domain of B7-H3. In words: ELISA on B7-H3 domains, IgG1 antibody. How it is done:
as §1

B1: P3H6 full-length IgG1 antibody (antibody, V domains shown)
VH: QVQLVQSGAEVKKPGESLKISCKGSGYSFSNYWIGWVRQMPGKGLEWMGIIYPGDSDTRYSPSFQGQVTISADKSISTAYLQWSSLKASDTAMYYCARSRGYPTNYMDVWGRGTTVTVSS
VL: QAVLTQPPSVSGAPRQRVTISCSGSSSNIGNNIVSWYQHLPGKAPRLLIYRERQRPSGVPDRFSGSKSGTSASLAISGLRSEDEADYYCATWDDSLNSWVFGGGTKLTVL
On to B1, for which the “EC50 (read off the curve)” value with antigen B7-H3 (R&D) is approximately 100 ng/mL. Also, the ELISA signal value with IgV domain of B7-H3 [1] lay within 1.6 to 3 elisasignalvalue.

B2: P1G2 full-length IgG1 antibody (antibody, V domains shown)
VH: QVQLQQSGAEVKKPGSSVKVSCKASGGTFSSYAISWVRQAPGQGLEWMGRIIPILGIANYAQKFQGRVTITADKSTSTAYMELSSLRSEDTAVYYCAVNYYDSSGYYSDYWGQGTLVTVSS
VL: SYELTQPPSASGSPGQSVTISCTGTSSDVGGYNYVSWYQQHPGKAPRLMIYGVSQRPSGVPDRFSGSKSGNTASLTVSGLQAEDEADYYCSSYANNNYVFGTGTKVTVL
Take B2: the ELISA signal value in assay [2] fell in the range of 1.6 to 3 elisasignalvalue; in assay [3] it was 0.6 to 1.5 elisasignalvalue; with IgC domain of B7-H3, 0.3 to 0.5 elisasignalvalue; in the assay with IgV domain of B7-H3 [1], 0.3 to 0.5 elisasignalvalue. This molecule also returned a Kd in assay [4] of 0.23 nM. Further, the koff in assay [4] came out at 0.00167 s⁻¹. In assay [4], this molecule came in with a kon of 7.26e+06 M⁻¹ s⁻¹.

B3: P2E5 full-length IgG1 antibody (antibody, V domains shown)
VH: QVTLKESGGGLVQPGGSLRLSCAASGFTFSNSYMTWVRQAPGMGLEWVASMKPDGSVKHYVDSVKGRFTISRDNTKNSLDLQMNSLRAEDTAVYYCSSYDTRWGWFDPWGEGTLVTVSS
VL: QTVVTQEPSFSVSPGGTVTLTCGLNSGSVSTSYFPSWYQQTPGQAPRTLIYNTNTRSSGVPDRFSGSILGNKAALTITGAQADDESDYYCLLYMDSGPHWVFGGGTKLTVL
notes: also called biotin-P2E5
As for B3, the ELISA signal value in assay [2] was in the range of 0.6 to 1.5 elisasignalvalue; in assay [3], 0.3 to 0.5 elisasignalvalue; in the assay with IgC domain of B7-H3, 0.3 to 0.5 elisasignalvalue; in the assay with IgV domain of B7-H3 [1], 0.3 to 0.5 elisasignalvalue. In addition, in assay [5], the “EC50 (read off the curve)” value is approximately 20 ng/mL. The molecule further registered a Kd in assay [4] of 2.4 nM. Moreover, the koff in assay [4] turned out to be 5.9e-05 s⁻¹. Moreover, in assay [4], the kon is 42500 M⁻¹ s⁻¹.

B4: P1E11 full-length IgG1 antibody (antibody, V domains shown)
VH: not shown
VL: EIVLTQSPLSLPVTLGQPASISCRSSQSLVHSDGNTYLNWFQQRPGQSPRRLIYKVSNRDSGVPDRFSGSGSGTDFTLKISRVEAEDVGFYYCMQGTHWPPGTFGQGTKLEIK
notes: also called biotin-P1E11
With B4, in the assay with IgV domain of B7-H3 [6], the binding result is “no binding (tested: ELISA signal value 0.1~0.2)”. In addition, the ELISA signal value in assay [3] was 1.6 to 3 elisasignalvalue. In the assay with IgC domain of B7-H3, this molecule displayed an ELISA signal value of 0.6 to 1.5 elisasignalvalue. In assay [4], the Kd was 0.0248 nM, the koff was 7.76e-05 s⁻¹ and the kon was determined as 3.13e+06 M⁻¹ s⁻¹.
